These results are taken from the DeepSol protein solubility set.

This data set is described as follows: soluble on expression in E. coli; label from the status in PepcDB or PDB records.
Take “APTPAQMPSPTSFSDSIKQLAAETLPKYMQQLNSLDAEMLQKNHDQFATGSGPLRGSITQCQGLMQFCGGELQAEASAILNTPVCGIPFSQWGTIGGAASAYVASGVDLTQAANEIKGLAQQMQKLLSLMHHHHHH”: the “soluble on expression in E. coli” value is listed as “soluble”.

Consider “MGSDKIHHHHHHMTQPQMIHPGETPEQHAAFQARIARGEKIEPGDWMPAEYRRQLIRMISQHAHSEVVGMLPEGEWITRAPTLKRKTILIAKVQDEAGHGQYLYHAAETLGVTREEMLDALLSGKAKYSSIFNYPSLTWADVGMIGWLVDGAAIKNQTMLAGCSYGPYSRAMVRICSEETFHHKQGKEMIVAYAQGTPEQKQMAQDALNRWWWPALMMLGPHDADSPNTGALVQWGIKLKTNDEVRQEFINEHVPELLEAGLTIPDPDLHQDEQGNWIHGPINWDEFWAVVKGQQGLHRERLGTRQQAHEEGAWVREAVQAYAARQLGQAAD”, for which the “soluble on expression in E. coli” value is “not soluble”. The value for “MPKLPRIDFYFDVISPYSYIAFEVFQKLETQWKGVTIRYIPFFLGAVMKESGNRPPAMLPARSIMMMTDLKRTAKFWDIPLTPPPLFMEWIKKYRTTGAMKVLLVLQEQDKELMLRAAREMWVRLWSRSEKIFEDQDFVEVLKAVGVKNPEQIVEKSKDEKYIKILMENTNKGVDLMAYGAPWINVHTEDGSEHSFFGSDRFHLIADLLQQPQPLPDRLFGQKSKL” was “not soluble”. In the case of “MSLKKLISGIIAVAMALSLAACQKETKVISLSGKTMGTTYHVKYLDDGSITATSEKTHEEIEAILKDVNAKMSTYKKDSELSRFNQNTQVNTPIEISADFAKVLAEAIRLNKVTEGALDVTVGPVVNLWGFGPEKRPEKQPTPEQLAERQAWVGIDKITLDTNKEKATLSKALPQVYVDLSSIAKGFGVDQVAEKLEQLNAQNYMVEIGGEIRAKGKNIEGKPWQIAIEKPTTTGERAVEAVIGLNNMGMASSGDYRIYFEENGKRFAHEIDPKTGYPIQHHLASITVLAPTSMTADGLSTGLFVLGEDKALEVAEKNNLAVYLIIRTDNGFVTKSSSAFKKLTETKEEGGSHHHHHH”, the “soluble on expression in E. coli” value is listed as “soluble”. Take “MSLSDAAAVTVVEQTEKRHKLIGYWHNFVNGAGCPIRLADMADAWDVIDIAFAENDRNSDGTVHFNLYSGDIYSDCPALDPTQFKQDMAALQAKGKKFVLSLGGAEGTITLNTDQDEANFVSSLTGLIAEWGFDGLDVDLESGSNLVHGSQIQARLGRALLQIEQNMGGDMYLTMAPEHPYVQGGYVAYSGIWGAYIPVINDTRSTLDLLHVQLYNNGGLPNPYLPSSAPEGSVDMMVAQSKMLIEGFELADGTQFAPLRDDQVAIGLPSGPSSANSGQAPTQNILNALDCLTKGTSCGTVKPAFNYPNYAGVMTWSINWDQHDGFNFSKPVGDKLTQMNAEGHHHHHH”: the “soluble on expression in E. coli” value is reported as “soluble”. “EFILVQADTPSSPSIDQVEPYSSTAQVQFDEPEATGGVPILKYKAEWRAVGEEVWHSKWYDAKEASMEGIVTIVGLKPETTYAVRLAALNGKGLGEISAASEFKTQPVREPSAPKLEGQMGEDGNSIKVNLIKQDDGGSPIRHYLVRYRALSSEWKPEIRLPSGSDHVMLKSLDWNAEYEVYVVAENQQGKSKAAHFVFRTSAQPTAIPANGSPTSGL”: the “soluble on expression in E. coli” value was “soluble”. The value for “MMNIQVLKVSGNGNINAIADTINKYVIEDGIVHIDAIGIKATYTTVKALIQVVESLVNKGYRFNLRPYYVKVNTAGNDIQPISKTAIRWTLIAKEK” was “soluble”; that for “MEGFVLAGTSSGVGKTVATLATLTALEDAGYQPQPAKAGPDFIDPSHHEALVDTPSRTLDPWLAGEDGMRRTYWRGTGDICVVEGVMGLYDGTKTSTAAVAEGLDLPVVLVVDAKAGMESVAATALGFAQYADRIGVDIEVAGILAQRAHGGRHADGIRDALPEDLTYFGRIPPMSDLEIPDRHLGLHMGSEAGLDRDALSTAAETIDIERLVETARAPPEVATTERNTGDSPADRRVAVAQDSAFCFIYPSVLERLRSEASVEPFSPVAGDSVPDADAIYLPGGYPELHGESLETGGTLDEIAVRAADGVPVYGECGGLMALSESLTTTDGDTYEMAGVLPADIEMQDRYQALDHVELEARADTVAATSGAHRRGHEFHYSAATLGSDASFAFDMVRGDGIDGEHDGLTEYSTIGTYCHCHGESGAFDRLLAVPSKDILEHHHHHH” was “not soluble”.

“MGSDKIHHHHHHLTEFTLMVAPNGARRGKADHPALPMTAPELAETALACHRLGAQALHLHVRDAEGVHSLDAGRYREAMSLVSEAVPTMGIQITTESAGLFDVGAQLACLEALRPAAASVSVREMARDKSLAARAYALCSEAGTQVQHILYTPECVEQLEAWYADGTVPDEMRDVILVLGQYATGQPARPAMLPPFLALIAPLDLRWSLCAFGPEEHACLLAAVEAGGQVRIGFENSLGPMGGPAWADNAASVEAFLNLTVARGHTLDPHQNMPGANLRELT”: the “soluble on expression in E. coli” value is on record as “not soluble”. With “MGSDKIHHHHHHMTGNQMFCRENELDESFKQLASYINIPVGVLLPFKSQCFVRHYNKGQIVYYSSDETTHIYLLLKGNIMRENFNLNGDVYRYLNREKVLFPLNNLFQDKVPNEMCTALTDCEMIGIPRDLIEYLCKNHEEIFVKLFSLLSETQCQHIEYNMALTSKLAKERVTKILRYLCQTVGYDHDEFYEIKHFMTIQLLSDMAGISRETTSHIINELREEKILFKNSKNWLVSKDL”, the “soluble on expression in E. coli” value is reported as “not soluble”. The value for “MEGLFESLPEGYREKLGRPGEYPFTRGIYPRMYLERLWTMRQYAGFSTAEESNARYRYLLSQGQTGLSVAFDLPTQLGLDPDHPMSVGEVGRVGVSIATLEDMQKLFDGIPLDQVSTSMTINAPAMMLLALYLLVAEAQGVPWDKVSGTVQNDILKEYFARGTYIYPPGPSMRLVTDIFEFCAAHVPRWNTISISGYHIREAGSTAAQEIAFTLADAKAYVRAALERGLDVDRFAPRLSFFFAAHGDIFEEAAKFRAARRLWARIMREEFGAKDPKSWMLRFHTQTGGSTLTAQEPLNNVVRTAYQALAAVLGGTQSLHTNAYDEALGLPTEKSALLALRTQQILAYESGVTRAIDPLGGSFYVEHLTDKLEREAEQILREIDALGGAVAAVEAGYFQRALEESAWQFQKEVEEGKRVIVGVNRFFDPNSPLNEPVPVQRIDPELHERRKRELAAFKANRDGESVRVGLERLREAARGEENLFPYVLEAFRRRATLGEVCGVLREEWGEYQPPR” was “soluble”; that for “MQLRYAFRVYPDAGQRLALARAFGCARVVFNDVVRAREDARKAGRPFQTAAGLSRKLITEAKRTAERSWLGEVSAVVLQQSLRDAETAYRNFFASLKGTRKGPRVGPPRYKSRKDARQSIRFTANARWSITDSGRLNLPKIGAVKVKWSRTLPTIPTSVTVIKDAAGRYFASFVVDTDPAADRVRMPDADRTVGIDLGLTHFAVLSDGTKIGSPRFLRRAEKKLKKAQQELSRKQMGSKNRDRARLKVARAHAKVADARREFHHQLSTRLISENQGIAVEDLSVAGLARTRLAKSVHDAGWSSFVGMLKYKAERYGRTLVVIGRFEPTSQTCSTCGVKDGPKPLQVREWTCTACGTVHDRDHNAAINVKQAAGLAASACGAPVRPGAIPAQREETGSHGLPTEPRAALEHHHHHH” was “not soluble”; that for “MGDPKAFLNIPRQEAGYRPVSERITDYSQVEQTLNTNSRKLQASRCMDCGVPFCHWACPIGNKQPEWQDALFKGKWKEAYEVLSSTCDFPEFTGRICPALCEKSCVLKLSCDQPVTIRENEAAIVEAAFREGYIQVQHPQRNGKKVAVVGAGPAGLVVANQLNLKGYTVTLFDKDEAAGGLLRFGIPNFKLDKNVIDRRMKILAAEGIQFEMGVEIDVNHLPEGFDAYCICTGTPTARDLSIPGRELKGIHFALEMLAQQNRILEGQTFPKDKLVNAKGKKVLVIGGGDTGSDCIGTSVRQGATSVTQIEIMPKPPVGHNPSTPWPQWPVVFKTTSSHEEGCTRRWCLTSNQFLGKNGKVTGVEVEEVEWTPATDGGRPTMNLTGKKEVIEADMVLLAMGFLKPEQPKFAENVFLAGDAATGASLVVRAMAGGRKAAADIDHYLVKLEHHHHHH” was “soluble”. The value for “MEFMMEIQGNRKELMVSKIKNGTVIDHIPAGRAFAVLNVLGIKGHEGFRIALVINVDSKKMGKKDIVKIEDKEISDTEANLITLIAPTATINIVREYEVVKKTKLEVPKVVKGILKCPNPYCITSNDVEAIPTFKTLTEKPLKMRCEYCETIIDENEIMSQILGANNK” was “soluble”; that for “MNTINANDLKTRGIAAIEAQLEEQPEAIIAVRGKDRYVVMQLEHYYYLRECELTAALAETRADLAAGRCEQESPEAHLARLDTLK” was “not soluble”.
